We go through one molecule from paper PMC3276558, “The B-Cell Specific Transcription Factor, Oct-2, Promotes Epstein-Barr Virus Latency by Inhibiting the Viral Immediate-Early Protein, BZLF1”.

For this data set, the target named is Oct-2 Q221A (UniProt P09086 1-479, Q221A). Kind of data set: EMSA; EMSA with in vitro-translated protein and 32P-labelled annealed ds oligonucleotide; buffer, salt, pH and temperature not given in the material. Particulars: protein: ivt; label: 32P (T4 PNK, 5' end); blunt.
Chain of Oct-2 Q221A (P09086 whole entry Q221A): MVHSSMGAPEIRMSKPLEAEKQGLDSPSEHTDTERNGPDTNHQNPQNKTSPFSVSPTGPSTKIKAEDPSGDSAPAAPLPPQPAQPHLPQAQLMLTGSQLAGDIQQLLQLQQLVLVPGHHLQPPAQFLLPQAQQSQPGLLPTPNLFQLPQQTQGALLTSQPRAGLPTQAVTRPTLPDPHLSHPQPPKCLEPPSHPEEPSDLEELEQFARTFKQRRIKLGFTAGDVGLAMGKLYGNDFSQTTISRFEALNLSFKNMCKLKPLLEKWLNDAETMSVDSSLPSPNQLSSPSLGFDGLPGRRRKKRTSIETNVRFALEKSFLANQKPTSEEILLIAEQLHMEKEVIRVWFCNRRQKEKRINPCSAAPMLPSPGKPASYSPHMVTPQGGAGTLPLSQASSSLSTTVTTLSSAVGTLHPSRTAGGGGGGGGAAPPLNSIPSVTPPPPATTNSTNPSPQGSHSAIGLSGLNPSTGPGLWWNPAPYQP

B1: Oct probe (dsDNA)
DNA 1: CAGTGATGCAAATCTTGT
DNA 2: ACAAGATTTGCATCACTG
For the molecule B1, the binding result is “no binding”.
